Measured values: article PMC10923667, “Cloning and expression heterologous alanine dehydrogenase genes: Investigation of reductive amination potential of L-alanine dehydrogenases for green synthesis of alanine derivatives” (Heliyon, 2024)

Assays:
AfAlaDH = biological target: T1, AfAlaDH (Archaeoglobus fulgidus, UniProt O28608); experiment: NADH consumption at […] nm, Michaelis-Menten fit; assay type: biochemical; settings: reductive amination; 0.5 mM NADH, 0.5 M NH4Cl, pH 9.5, 25 °C; read-out: Pyruvate / KM
T1 construct: gene ala; full-length, codon-optimised, pET-28a(+) NdeI/XhoI, N- and C-terminal 6xHis tags, E. coli BL21 (DE3), Ni-NTA purified
T1 sequence (O28608 1-322): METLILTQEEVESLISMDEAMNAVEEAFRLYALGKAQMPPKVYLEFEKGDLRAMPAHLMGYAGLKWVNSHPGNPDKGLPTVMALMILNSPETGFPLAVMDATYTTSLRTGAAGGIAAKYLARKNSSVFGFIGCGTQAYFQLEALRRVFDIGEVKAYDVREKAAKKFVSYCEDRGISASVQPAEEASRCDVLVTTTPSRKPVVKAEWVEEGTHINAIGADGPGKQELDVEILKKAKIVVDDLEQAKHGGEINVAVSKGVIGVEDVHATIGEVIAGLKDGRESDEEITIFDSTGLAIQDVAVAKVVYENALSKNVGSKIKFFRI

CC(=O)C(=O)O = test system: T2, CC(=O)C(=O)O; experiment: purified protein; assay type: biochemical, Candidatus Bathyarchaeota archaeon; settings: reductive amination, 0.5 mM NADH, 0.5 M NH4Cl, pH 10.5, 25 °C
T2 construct: full-length, codon-optimised, pET-28a(+) NdeI/XhoI, N- and C-terminal 6xHis tags, E. coli BL21 (DE3), Ni-NTA purified

CCC(=O)C(=O)O = test system: T3, CCC(=O)C(=O)O; experiment: purified protein; assay type: biochemical, Candidatus Bathyarchaeota archaeon; settings: reductive amination, 0.5 mM NADH, 0.5 M NH4Cl, pH 10.5, 25 °C
T3 construct: full-length, codon-optimised, pET-28a(+) NdeI/XhoI, N- and C-terminal 6xHis tags, E. coli BL21 (DE3), Ni-NTA purified

CCCC(=O)C(=O)O = test system: T4, CCCC(=O)C(=O)O; experiment: purified protein; assay type: biochemical, Candidatus Bathyarchaeota archaeon; settings: reductive amination, 0.5 mM NADH, 0.5 M NH4Cl, pH 10.5, 25 °C
T4 construct: full-length, codon-optimised, pET-28a(+) NdeI/XhoI, N- and C-terminal 6xHis tags, E. coli BL21 (DE3), Ni-NTA purified

purified protein [1] = substrate: CCC(=O)C(=O)O; experiment: purified protein; assay type: biochemical, Archaeoglobus fulgidus; settings: reductive amination, 0.5 mM NADH, 0.5 M NH4Cl, pH 9.5, 25 °C
purified protein [2] = substrate: CCCC(=O)C(=O)O; experiment: purified protein; assay type: biochemical, Archaeoglobus fulgidus; settings: reductive amination, 0.5 mM NADH, 0.5 M NH4Cl, pH 9.5, 25 °C
purified protein [3] = substrate: CCC(=O)C(=O)O; experiment: purified protein; assay type: biochemical, Ammoniphilus sp. CFH 90114; settings: reductive amination, 0.5 mM NADH, 0.5 M NH4Cl, pH 10.5, 25 °C
purified protein [4] = substrate: CCCC(=O)C(=O)O; experiment: purified protein; assay type: biochemical, Ammoniphilus sp. CFH 90114; settings: reductive amination, 0.5 mM NADH, 0.5 M NH4Cl, pH 10.5, 25 °C
purified protein [5] = substrate: CC(=O)C(=O)O; experiment: purified protein; assay type: biochemical, Ammoniphilus sp. CFH 90114; settings: reductive amination, 0.5 mM NADH, 0.5 M NH4Cl, pH 10.5, 25 °C
purified protein [6] = substrate: CCC(=O)C(=O)O; experiment: purified protein; assay type: biochemical, Melghiribacillus thermohalophilus; settings: reductive amination, 0.5 mM NADH, 0.5 M NH4Cl, pH 9.5, 25 °C
purified protein [7] = substrate: CCCC(=O)C(=O)O; experiment: purified protein; assay type: biochemical, Melghiribacillus thermohalophilus; settings: reductive amination, 0.5 mM NADH, 0.5 M NH4Cl, pH 9.5, 25 °C
purified protein [8] = substrate: CC(=O)C(=O)O; experiment: purified protein; assay type: biochemical, Melghiribacillus thermohalophilus; settings: reductive amination, 0.5 mM NADH, 0.5 M NH4Cl, pH 9.5, 25 °C
purified protein [9] = substrate: CCC(=O)C(=O)O; experiment: purified protein; assay type: biochemical, Thermus thermophilus; settings: reductive amination, 0.5 mM NADH, 0.5 M NH4Cl, pH 8.5, 25 °C
purified protein [10] = substrate: CCCCC(=O)C(=O)O; experiment: purified protein; assay type: biochemical, Thermus thermophilus; settings: reductive amination, 0.5 mM NADH, 0.5 M NH4Cl, pH 8.5, 25 °C
purified protein [11] = substrate: CCCC(=O)C(=O)O; experiment: purified protein; assay type: biochemical, Thermus thermophilus; settings: reductive amination, 0.5 mM NADH, 0.5 M NH4Cl, pH 8.5, 25 °C
purified protein [12] = substrate: CC(=O)C(=O)O; experiment: purified protein; assay type: biochemical, Thermus thermophilus; settings: reductive amination, 0.5 mM NADH, 0.5 M NH4Cl, pH 8.5, 25 °C

**Q.** Which Km (AfAlaDH) does the source give for `CC(=O)C(=O)O` [pyruvate] here?
**A.** 200 ± 100 µM

**Q.** With “CbAlaDH (Candidatus Bathyarchaeota archaeon)” as the molecule, how does the Km (CC(=O)C(=O)O) read?
**A.** 400 ± 0 µM

**Q.** And the kcat (CC(=O)C(=O)O)?
**A.** 0.5 ± 0.1 s⁻¹

**Q.** What about the kcat/Km (CC(=O)C(=O)O) of the same molecule?
**A.** 1300 ± 100 M⁻¹ s⁻¹

**Q.** And the Km (CCC(=O)C(=O)O)?
**A.** 2200 ± 1000 µM

**Q.** What about the kcat (CCC(=O)C(=O)O) of the same molecule?
**A.** 0.7 ± 0.2 s⁻¹

**Q.** And the kcat/Km (CCC(=O)C(=O)O)?
**A.** 300 ± 200 M⁻¹ s⁻¹

**Q.** And the Km (CCCC(=O)C(=O)O)?
**A.** 800 ± 0 µM

**Q.** What about the kcat (CCCC(=O)C(=O)O) of the same molecule?
**A.** 0.17 ± 0.1 s⁻¹

**Q.** And the kcat/Km (CCCC(=O)C(=O)O)?
**A.** 210 ± 100 M⁻¹ s⁻¹

B1: AfAlaDH (Archaeoglobus fulgidus DSM 4304) (protein)
chain: T1 sequence (O28608 1-322)
notes: full-length, codon-optimised, pET-28a(+) NdeI/XhoI, N- and C-terminal 6xHis tags, E. coli BL21 (DE3), Ni-NTA purified
**Q.** Which Km (purified protein [1]) does the source give for B1 here?
**A.** 200 ± 0 µM

**Q.** What about the kcat (purified protein [1]) of the same molecule?
**A.** 7.5 ± 0.1 s⁻¹

**Q.** And the kcat/Km (purified protein [1])?
**A.** 34000 ± 100 M⁻¹ s⁻¹

**Q.** And the Km (purified protein [2])?
**A.** 300 ± 0 µM

**Q.** What about the kcat (purified protein [2]) of the same molecule?
**A.** 0.9 ± 0.2 s⁻¹

**Q.** What about the kcat/Km (purified protein [2]) of the same molecule?
**A.** 2700 ± 300 M⁻¹ s⁻¹

B2: AcfhAlaDH (Ammoniphilus sp. CFH 90114) (protein)
chain: MIIGVPKEIKNNENRVGLTPAGVTAFKNNGHDVWVETNAGMGSGFTDEDYTAAGAKIVDSASVVWSAEMVVKVKEPLPEEYTYFREGLILYTYLHLAPEPELTKALVEKKVIAIAYETIQADNGSLPLLTPMSEVAGRMSIQIGAQFLEKSKGGKGVLLGGVPGVAPGEVVIVGGGIVGTNAAKMALGLGASVTLLDISADRLRQLDDMFQGRLKTLMSNSYNIAEAVKKADLVVGAVLIPGARAPRLVTEEMVKTMQPGSVIVDVAIDQGGSIETIDRITTHDNPTYVKHGVLHYAVANMPGAVARTSTIALTNVTVPYGVQIANKGWKQAALDNKALAKGINVVDGKVTYKAVAEAHGYTPVAVETVLTGQNVGV
notes: as for B1
**Q.** How did the Km (purified protein [3]) turn out when B2 was run?
**A.** 1300 ± 400 µM

**Q.** And the kcat (purified protein [3])?
**A.** 5.4 ± 0.5 s⁻¹

**Q.** What about the kcat/Km (purified protein [3]) of the same molecule?
**A.** 4000 ± 1400 M⁻¹ s⁻¹

**Q.** And the Km (purified protein [4])?
**A.** 5200 ± 800 µM

**Q.** What about the kcat (purified protein [4]) of the same molecule?
**A.** 1 s⁻¹

**Q.** What about the kcat/Km (purified protein [4]) of the same molecule?
**A.** 200 M⁻¹ s⁻¹

**Q.** And the Km (purified protein [5])?
**A.** 700 ± 200 µM

**Q.** What about the kcat (purified protein [5]) of the same molecule?
**A.** 112 ± 6.6 s⁻¹

**Q.** What about the kcat/Km (purified protein [5]) of the same molecule?
**A.** 148000 ± 13500 M⁻¹ s⁻¹

B3: MetAlaDH (Melghiribacillus thermohalophilus) (protein)
chain: MKIGVPKEIKNNENRVALTPAGVMTLKKAGHEVFIETGAGLGSGFTDEQYTEAGAQIVTTAKEAWSQEMVMKVKEPLPEEYDYFYEGLILFTYLHLAAEPELTKALIEKKVVGIAYETVQLDNGSLPLLTPMSEVAGRMATQIGAQFLEKPHGGKGILLGGIPGVRRGKVTIIGGGVVGTNAAKIAVGLGADVTIVDLNPDRLRELDDIFGSSINTLMSNSLNIAEAVKESDLVIGAVLIPGAKAPKLVTEDMVKEMKKGSVIVDVAIDQGGIVETSDRITTHDNPTYEKHGVVHYAVANMPGAVPRTSTIGLTNVTVPYAVQLANKGYKQACLDHAALKKGINTLNGYVTYQAVAEAHGLEYENVDLLLK
notes: as for B1
**Q.** With B3 as the molecule, how does the Km (purified protein [6]) read?
**A.** 3800 ± 1200 µM

**Q.** And the kcat (purified protein [6])?
**A.** 3.3 s⁻¹

**Q.** What about the kcat/Km (purified protein [6]) of the same molecule?
**A.** 800 M⁻¹ s⁻¹

**Q.** What about the Km (purified protein [7]) of the same molecule?
**A.** 1900 ± 0 µM

**Q.** What about the kcat (purified protein [7]) of the same molecule?
**A.** 0.7 s⁻¹

**Q.** And the kcat/Km (purified protein [7])?
**A.** 400 M⁻¹ s⁻¹

**Q.** And the Km (purified protein [8])?
**A.** 1300 ± 400 µM

**Q.** What about the kcat (purified protein [8]) of the same molecule?
**A.** 140 ± 19.7 s⁻¹

**Q.** What about the kcat/Km (purified protein [8]) of the same molecule?
**A.** 108000 ± 12000 M⁻¹ s⁻¹

B4: TtAlaDH (Thermus thermophilus HB8) (protein)
chain: MVIGVPKEIKTLENRVALTPGGVESLVRRGHTVLVERGAGEGSGLSDAEYARAGAELVGREEAWGAEMVVKVKEPLPEEYGFLREGLILFTYLHLAADRGLTEAMLRSGVTGIAYETVQLPDGTLPLLVPMSEVAGRMAPQVGAQFLEKPKGGRGVLLGGVPGVAPASVVILGGGTVGTNAAKIALGMGAQVTILDVNHKRLQYLDDVFGGRVITLTATEANIKKSVQHADLLIGAVLVPGAKAPKLVTRDMLSLMKEGAVIVDVAVDQGGCVETIRPTTHAEPTYVVDGVVHYGVANMPGAVPRTSTFALTNQTLPYVLKLAEKGLDALLEDAALLKGLNTHKGRLTHPGVAEAFGLPYTPPEEALRG
notes: as for B1
**Q.** For B4, which Km (purified protein [9]) is on record?
**A.** 400 ± 100 µM

**Q.** And the kcat (purified protein [9])?
**A.** 1.1 s⁻¹

**Q.** And the kcat/Km (purified protein [9])?
**A.** 3000 ± 700 M⁻¹ s⁻¹

**Q.** And the Km (purified protein [10])?
**A.** 400 µM

**Q.** What about the Km (purified protein [11]) of the same molecule?
**A.** 3300 ± 1100 µM

**Q.** What about the kcat (purified protein [11]) of the same molecule?
**A.** 1.2 s⁻¹

**Q.** What about the kcat/Km (purified protein [11]) of the same molecule?
**A.** 400 M⁻¹ s⁻¹

**Q.** And the Km (purified protein [12])?
**A.** 630 ± 200 µM

**Q.** And the kcat (purified protein [12])?
**A.** 87 ± 5.1 s⁻¹

**Q.** And the kcat/Km (purified protein [12])?
**A.** 138000 ± 15700 M⁻¹ s⁻¹
